Measurements published in paper PMC3618350 (G3: Genes|Genomes|Genetics, 2013).
Read-outs that look alike come from different tables or passages of the source.

T1: Rev7 (S. cerevisiae, UniProt P38927 1-245)
T1 sequence (looked up): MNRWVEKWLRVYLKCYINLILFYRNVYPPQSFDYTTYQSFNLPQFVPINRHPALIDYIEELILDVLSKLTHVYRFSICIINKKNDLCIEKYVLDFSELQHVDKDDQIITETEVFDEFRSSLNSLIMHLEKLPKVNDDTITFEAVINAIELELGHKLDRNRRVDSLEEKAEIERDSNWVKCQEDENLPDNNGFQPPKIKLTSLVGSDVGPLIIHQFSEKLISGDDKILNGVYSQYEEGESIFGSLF

T2: Rev1 (S. cerevisiae, UniProt P12689 1-985)
T2 sequence (looked up): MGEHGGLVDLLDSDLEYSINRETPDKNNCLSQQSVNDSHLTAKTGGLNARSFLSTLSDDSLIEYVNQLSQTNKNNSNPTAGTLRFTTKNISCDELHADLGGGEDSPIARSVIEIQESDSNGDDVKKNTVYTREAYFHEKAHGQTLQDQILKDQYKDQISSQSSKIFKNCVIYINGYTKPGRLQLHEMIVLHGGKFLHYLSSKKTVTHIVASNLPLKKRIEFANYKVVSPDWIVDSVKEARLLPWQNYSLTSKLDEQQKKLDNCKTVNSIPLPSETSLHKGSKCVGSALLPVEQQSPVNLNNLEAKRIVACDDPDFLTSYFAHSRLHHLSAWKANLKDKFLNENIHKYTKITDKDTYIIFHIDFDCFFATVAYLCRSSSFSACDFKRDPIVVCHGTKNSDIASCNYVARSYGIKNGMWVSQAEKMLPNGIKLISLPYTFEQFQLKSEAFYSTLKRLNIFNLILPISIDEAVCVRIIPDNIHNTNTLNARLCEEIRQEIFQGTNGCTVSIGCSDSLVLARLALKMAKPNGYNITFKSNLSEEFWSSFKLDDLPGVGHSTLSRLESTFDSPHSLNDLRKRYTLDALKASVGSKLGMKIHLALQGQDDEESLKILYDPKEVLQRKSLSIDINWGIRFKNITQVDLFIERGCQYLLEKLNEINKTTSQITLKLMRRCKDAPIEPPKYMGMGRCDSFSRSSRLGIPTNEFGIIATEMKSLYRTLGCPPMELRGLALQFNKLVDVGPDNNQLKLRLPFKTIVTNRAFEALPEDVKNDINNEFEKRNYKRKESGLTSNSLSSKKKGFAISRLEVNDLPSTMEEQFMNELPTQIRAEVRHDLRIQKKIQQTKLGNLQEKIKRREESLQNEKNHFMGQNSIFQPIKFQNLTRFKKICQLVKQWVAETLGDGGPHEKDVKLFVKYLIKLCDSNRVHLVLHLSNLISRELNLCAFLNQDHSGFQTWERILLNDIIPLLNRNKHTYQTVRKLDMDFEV

B1: Rad54 (natural protein, S. cerevisiae, UniProt P32863 1-898, looked up)
chain: MARRRLPDRPPNGIGAGERPRLVPRPINVQDSVNRLTKPFRVPYKNTHIPPAAGRIATGSDNIVGGRSLRKRSATVCYSGLDINADEAEYNSQDISFSQLTKRRKDALSAQRLAKDPTRLSHIQYTLRRSFTVPIKGYVQRHSLPLTLGMKKKITPEPRPLHDPTDEFAIVLYDPSVDGEMIVHDTSMDNKEEESKKMIKSTQEKDNINKEKNSQEERPTQRIGRHPALMTNGVRNKPLRELLGDSENSAENKKKFASVPVVIDPKLAKILRPHQVEGVRFLYRCVTGLVMKDYLEAEAFNTSSEDPLKSDEKALTESQKTEQNNRGAYGCIMADEMGLGKTLQCIALMWTLLRQGPQGKRLIDKCIIVCPSSLVNNWANELIKWLGPNTLTPLAVDGKKSSMGGGNTTVSQAIHAWAQAQGRNIVKPVLIISYETLRRNVDQLKNCNVGLMLADEGHRLKNGDSLTFTALDSISCPRRVILSGTPIQNDLSEYFALLSFSNPGLLGSRAEFRKNFENPILRGRDADATDKEITKGEAQLQKLSTIVSKFIIRRTNDILAKYLPCKYEHVIFVNLKPLQNELYNKLIKSREVKKVVKGVGGSQPLRAIGILKKLCNHPNLLNFEDEFDDEDDLELPDDYNMPGSKARDVQTKYSAKFSILERFLHKIKTESDDKIVLISNYTQTLDLIEKMCRYKHYSAVRLDGTMSINKRQKLVDRFNDPEGQEFIFLLSSKAGGCGINLIGANRLILMDPDWNPAADQQALARVWRDGQKKDCFIYRFISTGTIEEKIFQRQSMKMSLSSCVVDAKEDVERLFSSDNLRQLFQKNENTICETHETYHCKRCNAQGKQLKRAPAMLYGDATTWNHLNHDALEKTNDHLLKNEHHYNDISFAFQYISH
B2: Mei4 (natural protein, S. cerevisiae, UniProt P29467 1-408, looked up)
chain: MSRGKLEDMEQKETSEVDWIICFALIQSRNPTLWKRALSRKKGDVEDVGALKSEKNLKINPRENSKHIYKWVAPFENGFLNNKSLFAHLEPIYNFLCQNKYKSFEDAVGLKELQSFSKDVSTADINNWFLPRYKILLKILSLKTKEIDFRGLSQVFQTLQILLVSHYSHRIDSDSSFKRTLIDVHVFNFIAKFLFNRILLKKNQNDPKWLQNFYDQGDGKHLCDKVDYKRLCSLHFTLIYSIINIQLIKIKTNQTFEPQILKYVSVLKLIEHILIIIESLIHVLIRFVSKHKLICINRKKAYCRVYLERELSLKKTYLKNFYSVISGVPEKELGGLLKILKIVILSLLETFESIEWQHLKPFLEKFPAHEISLQKKRKYIQAALLITAERNLIARFRLSRWFNETENI
B3: Spo11 (natural protein, S. cerevisiae, UniProt P23179 1-398, looked up)
chain: MALEGLRKKYKTRQELVKALTPKRRSIHLNSNGHSNGTPCSNADVLAHIKHFLSLAANSLEQHQQPISIVFQNKKKKGDTSSPDIHTTLDFPLNGPHLCTHQFKLKRCAILLNLLKVVMEKLPLGKNTTVRDIFYSNVELFQRQANVVQWLDVIRFNFKLSPRKSLNIIPAQKGLVYSPFPIDIYDNILTCENEPKMQKQTIFPGKPCLIPFFQDDAVIKLGTTSMCNIVIVEKEAVFTKLVNNYHKLSTNTMLITGKGFPDFLTRLFLKKLEQYCSKLISDCSIFTDADPYGISIALNYTHSNERNAYICTMANYKGIRITQVLAQNNEVHNKSIQLLSLNQRDYSLAKNLIASLTANSWDIATSPLKNVIIECQREIFFQKKAEMNEIDARIFEYK
B4: Rec114 (natural protein, S. cerevisiae, UniProt P32841 1-428, looked up)
chain: MYEYCSVVIKKYSKYTIPSFAPNGFQSMLEPPQIDKWQHLSANCTLQFRVLLMDSRQILINVVLNNSTLLENIRLPLGDNQDLIQFSCKSPIISCKYISEEFGPRMLRRFQMNLPNDVEFNRTVVSLKNLNFVLRTARTSIAQSTITSQVQGNNNGTKVCFTEGPKVSSYTNPNTQFQTQNMIMDFSQRYQEESERESNNRSNITLPHDSIQIAQQIWPNTDLNVVQSSQDLNTPMATQTVLGRPESLIVQPLEVSQSPPNTTNCLPNAENKKKKVDTTSDFTSRKEIALCKTGLLETIHIPKERESQMQSVTGLDATPTIIWSPGKDNTAKKNTSNKKNIDDKLTNPQKSGNTHTPDRNKEVLPNGTLNETRKEASPSEGLTIRVKNVNRNASRKISKRLIKEKLKDEEFMKWVNKVETVLNKMFEK
B5: Rad57 (natural protein, S. cerevisiae, UniProt P25301 1-460, looked up)
chain: MPRALSIKFDNTYMDLYDELPESKLLYDEEFSYLLDAVRQNGVCVVDFLTLTPKELARLIQRSINEVFRFQQLLVHEYNEKYLEICEKNSISPDNGPECFTTADVAMDELLGGGIFTHGITEIFGESSTGKSQLLMQLALSVQLSEPAGGLGGKCVYITTEGDLPTQRLESMLSSRPAYEKLGITQSNIFTVSCNDLINQEHIINVQLPILLERSKGSIKLVIIDSISHHLRVELQNKSFRESQENKNYLDRMAEKLQILAHDYSLSVVVANQVGDKPLANSPVAHRTYVTDYDYQLGWLVGWKNSTILYRQMNSLLGASSNNDEILSDDEDYMLIERVMSTVNDRNYDFFSKKKPPIIENKTVERNSSSPISRQSKKRKFDYRVPNLGLTWSNHVSTRILLQKSFKASTIIQRGEAHLYKGGDSASFWQVKRTMKVVYSTFAKPGQIAYQITKRGIETA

Experiments:
Assay in all cases: two-hybrid
Rev7 [1] = biological target: T1, Rev7
Rev1 = biological target: T2, Rev1
Rev7 [2] = biological target: T1, Rev7; remark: listed apart in the source

| Binder | fold change in reporter activity over the highest negative control (Rev7 [1]) [fold] | fold change in reporter activity over the highest negative control (Rev1) [fold] | also measured |
| --- | --- | --- | --- |
| B1 | 1.49 |  |  |
| B2 |  | 3.01 |  |
| B3 |  | 4.15 |  |
| B4 |  |  | fold change in reporter activity over the highest negative control (Rev7 [2]): 6.27 fold |
| B5 | 2 |  |  |
